Assay results taken from patent US20060233788A1 (published 2006).
Where a chain is given by its changes, count along the chain named. No end group written: not given here. *: point of attachment. Octanoyl = CCCCCCCC(=O)*

T1: human ghrelin peptide 4-16 (human)
T1 peptide: FLSPEHQRVQQRK

T2: human ghrelin peptide 4-28 (human)
T2 peptide: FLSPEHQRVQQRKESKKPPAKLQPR

T3: human ghrelin peptide spanning amino acids 4-20 (human)
T3 peptide: FLSPEHQRVQQRKESKK

T4: human ghrelin peptide 7-16 (human)
T4 peptide: PEHQRVQQRK

T5: human ghrelin peptide 13-19 (human)
T5 peptide: QQRKESK

T6: human ghrelin peptide 18-28 (human)
T6 peptide: SKKPPAKLQPR

T7: peptide spanning amino acids 14-28 of human ghrelin (human)
T7 peptide: QRKESKKPPAKLQPR

B1: Fab 1181 (Fab, V domains shown)
VH: QVQLQQSGAELVRSGASVKLSCTASGFNIKDYFMQWVKQRPEQGLEWIGWIDPENGETGYAPKFQGKATMTADTASNTAYLQLSSLTSEDTALYYCNAPSVVAKYFDVWGAGTTVTVSS
VL: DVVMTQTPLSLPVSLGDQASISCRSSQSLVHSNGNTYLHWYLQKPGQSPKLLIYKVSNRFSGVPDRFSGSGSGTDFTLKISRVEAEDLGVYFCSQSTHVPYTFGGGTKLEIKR
notes: Mouse Fab from an Omniclonal library (Biosite); kappa light chain (detected and captured with goat anti-mouse kappa); the HCVR amino acid entry is 12
B2: Fab 1621 (Fab, V domains shown)
VH: B1 VH with M34V, Y95F
VL: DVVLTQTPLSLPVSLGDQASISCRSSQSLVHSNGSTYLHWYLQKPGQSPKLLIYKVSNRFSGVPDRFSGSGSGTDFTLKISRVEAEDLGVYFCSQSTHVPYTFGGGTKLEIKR
notes: Mouse Fab, kappa light chain
B3: Fab 4641 (Fab, V domains shown)
VH: QVQLQQSRPELVRPGASVKMSCRASAYTFTTYWMHWVRQRPGQGLEWIGMIDPSNSDTWLNQKFKDKATLNVDRSSNTAYMQLTSLTSEDSAVYYCARTGFDYWGQGTTLTVSS
VL: DVVMTQTPLSLPVSLGDQASISCRSSQSLVHSDGNTYLHWYLQKPGQSPKLLIYKVSNRFSGVPDRFSGSGSGTDFTLKISRVEAEDLGVYFCSQSTYVSYTFGGGTKLEIKR
notes: Mouse Fab
B4: Fab 1451 (Fab, V domains shown)
VH: B3 VH with Q3H, L4V, Q5K, R8G, R23K, R38K, S54Y, D57E, Q82K, T84S
VL: B3 VL with M4L, D33N, Y98H, S100P
notes: Mouse Fab
B5: Human 1-13 acyl (peptide)
peptide: GSSFLSPEHQRVQ
modifications: also: acyl (position and group not restated)
notes: also called human ghrelin 1-13 acyl; active human ghrelin analog
B6: Ghrelin (9-28) (peptide)
peptide: HQRVQQRKESKKPPAKLQPR
notes: also called hGhrelin (9-28)
B7: full-length human ghrelin (1-28) acylated with an octanoyl group on the serine at position 3 (peptide)
peptide: GSSFLSPEHQRVQQRKESKKPPAKLQPX
modifications: octanoyl group on the serine at position 3
notes: the 1-28 form has Arg at 28; also called hGhrelin; acylated hGhrelin
B8: Ghrelin (1-8, desacyl) (peptide)
peptide: GSSFLSPE
notes: also called hGhrelin (1-8 desacyl)
B9: Ghrelin (1-8 acyl) (peptide)
peptide: GSS(Octanoyl)FLSPE
notes: also called hGhrelin (1-8 acyl); Human 1-8 acyl
B10: full-length, acylated rat ghrelin (peptide, UniProt Q9QYH7 24-51, looked up)
peptide: GSSFLSPEHQKAQQRKESKKPPAKLQPR
modifications: also: acylated (position and acyl group not given here)
notes: mature; The UniProt entry is the precursor; the assay used the ghrelin peptide; also called rGhrelin

What was measured:
[1] = molecular target: T1, human ghrelin peptide 4-16; test: cell-based or functional assay
[2] = molecular target: T2, human ghrelin peptide 4-28; test: cell-based or functional assay
[3] = molecular target: T3, human ghrelin peptide spanning amino …; test: cell-based or functional assay
[4] = molecular target: B7; test: SPR (BIAcore 2000), Fab captured on goat anti-mouse kappa, ghrelin in solution, 25 C
Description: (§1) The BIAcore® utilizes the optical properties of surface plasmon resonance to detect alterations in protein concentration of interacting molecules within a dextran biosensor matrix. Except where noted, all reagents and materials are purchased from BIAcore® AB (Upsala, Sweden). All measurements are performed at 25° C. Samples containing rat or human ghrelin (full length, acylated) are dissolved in HBS-EP buffer (150 mM sodium chloride, 3 mM EDTA, 0.005% (w/v) surfactant P-20, and 10 mM HEPES, pH 7.4). A capture antibody, goat anti-mouse Kappa (Southern Biotechnology, Inc), is immobilized onto flow cells using amine-coupling chemistry. Flow cells (1-4) are activated for 7 minutes with a 1:1 mixture of 0.1 M N-hydroxysuccinimide and 0.1 M 3-(N,N-dimethylamino)propyl-N-ethylcarbodiimide at a flow rate of 10 μl/min. Goat anti-mouse Kappa (30 μg/mL in 10 mM sodium acetate, pH 4.5) is manually injected over all 4 flow cells at a flow rate of 10 μL/min. The surface density is monitored and additional goat anti-mouse Kappa is injected if needed to individual cell until all flow cells reach a surface density of 4500-5000 response units (RU). Surfaces are blocked with a 7 minute injection of 1 M ethanolamine-HCl, pH 8.5(10 μl/min). To ensure complete removal of any noncovalently bound goat anti-mouse Kappa, 15 μL of 10 mM glycine, pH 1.5 is injected twice. Running buffer used for kinetic experiments contained 10 mM HEPES, pH 7.4, 150 mM NaCl, 0.005% P20.
(§2) Collection of kinetic binding data is performed at maximum flow rate (100 μL/min) and a low surface density to minimize mass transport effects.

[5] = molecular target: T8, full-length human ghrelin not acylated (human); test: as above
T8 construct: also called hGhrelin (desacyl); des-acyl hGhrelin
Description: as §1, §2

[6] = molecular target: B10; test: as above
Description: as §1, §2

[7] = molecular target: B7; test: cell-based or functional assay
Ghrelin (1-8, desacyl) = molecular target: B8; test: FLIPR assay, peptide competes with hGhrelin for the Fab (no reduction means the Fab does not bind the peptide)
Ghrelin (1-8 acyl) = molecular target: B9; test: competitive ELISA on coated BSA-hGhrelin
Description: (§3) The plate was incubated at 4° C. overnight. The wells are aspirated and washed twice with washing buffer (20 mM Tris-Cl, pH 7.4, 0.15 M NaCl, 0.1% Tween 20). Compounds (i.e., human ghrelin or ghrelin analogs) are diluted into antibody solution. […] The compound concentration is varied as listed in Tables 2-5 below, but the Fab concentration is kept constant at 0.1 μg/ml in blocking solution (10 mg/ml BSA in wash buffer). […] The plates are incubated for 1 hour at room temperature. The wells are then washed three times with washing buffer.
(§4) Peroxidase-conjugated secondary antibody (50 μl goat anti-mouse kappa HRP (Southern Biotech), diluted 1:2000 in blocking buffer) is added to each well and incubated for 1 hour at room temperature. The wells are then washed 4 times with washing buffer. Fifty microliters of chromogenic substrate (i.e., OPD substrate) is added to each well and allowed to develop at room temperature for 10 minutes. The reaction is stopped by adding 100 μl 1N HCl to each well. The absorbance of the wells is read at 490 nm.

Ghrelin (9-28) = molecular target: B6; test: FLIPR assay, peptide competes with hGhrelin for the Fab
[8] = molecular target: T4, human ghrelin peptide 7-16; test: as above
[9] = molecular target: T5, human ghrelin peptide 13-19; test: as above
[10] = molecular target: T6, human ghrelin peptide 18-28; test: as above
[11] = molecular target: T7, peptide spanning amino acids 14-28 of …; test: FLIPR assay, peptide competes with hGhrelin for the Fab (Fab 5 nM)
Description: (§5) The final concentration of the sample solution is 0.75% BSA, and calcium at approximately the same concentration as in the FLIPR buffer. Fifty microliters of the sample solution is added to the 50 μl FLIPR buffer in the well with the AV12 cells. […] The cell plate is shaken for 15 seconds prior to loading it into the FLIPR instrument. Test samples or control samples are added to each well, and read by a Fluorometric Imaging Plate Reader (Molecular Devices).

[12] = molecular target: T7, peptide spanning amino acids 14-28 of …; test: FLIPR assay, peptide competes with hGhrelin for the Fab (Fab 20 nM)
Description: as §5

[13] = molecular target: T9, GHS-R1a human ghrelin receptor (human, UniProt Q92847 1-366); test: FLIPR calcium assay, AV12 cells expressing human GHS-R1a
T9 construct: whole, on cells; also called GHS-1a receptor; growth hormone secretagogue receptor

Fab 1181 [14] = molecular target: B1; test: competitive ELISA, Fab 1181 on coated BSA-hGhrelin; compound 5 ug/ml
Description: as §3, §4
(§6) The average absorbance from triplicate wells is determined.
Target sequence in this assay (VL, as listed by the source, chain 2 of 2, one chain of several): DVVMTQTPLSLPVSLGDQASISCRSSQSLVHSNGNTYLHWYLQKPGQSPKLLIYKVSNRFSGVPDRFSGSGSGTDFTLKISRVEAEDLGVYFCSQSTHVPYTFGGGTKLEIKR

Fab 1181 [15] = molecular target: B1; test: competitive ELISA, Fab 1181 on coated BSA-hGhrelin; compound 0 (baseline, no compound)
Description: as §3, §4, §6

Fab 1621 [16] = molecular target: B2; test: competitive ELISA, Fab 1621 on coated BSA-hGhrelin; compound 0 (baseline, no compound)
Description: as §3, §4, §6
Target sequence in this assay (VL, as listed by the source limits assumed): as the sequence (VL, as listed by the source, chain 2 of 2, one chain of several) above, with M4L, N35S counted along it

Fab 1621 [17] = molecular target: B2; test: competitive ELISA, Fab 1621 on coated BSA-hGhrelin; compound 1 ug/ml
Description: as §3, §4, §6
Target sequence in this assay (VH, as listed by the source limits assumed, chain 1 of 2): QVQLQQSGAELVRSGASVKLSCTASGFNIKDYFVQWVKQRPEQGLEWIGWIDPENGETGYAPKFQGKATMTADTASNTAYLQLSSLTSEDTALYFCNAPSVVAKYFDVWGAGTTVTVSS
Target sequence in this assay (VL, as listed by the source limits assumed, chain 2 of 2): as the sequence (VL, as listed by the source, chain 2 of 2, one chain of several) above, with M4L, N35S counted along it

Fab 1181 [18] = molecular target: B1; test: competitive ELISA, Fab 1181 on coated BSA-hGhrelin; compound 0.2 ug/ml
Description: as §3, §4, §6
Target sequence in this assay (VL, as listed by the source, chain 2 of 2, one chain of several): as the sequence (VL, as listed by the source, chain 2 of 2, one chain of several) above

Fab 1621 [19] = molecular target: B2; test: competitive ELISA, Fab 1621 on coated BSA-hGhrelin; compound 5 ug/ml
Description: as §3, §4, §6
Target sequence in this assay (VH, as listed by the source limits assumed, chain 1 of 2): as the sequence (VH, as listed by the source limits assumed, chain 1 of 2) above
Target sequence in this assay (VL, as listed by the source limits assumed, chain 2 of 2): as the sequence (VL, as listed by the source, chain 2 of 2, one chain of several) above, with M4L, N35S counted along it

Fab 1181 [20] = molecular target: B1; test: competitive ELISA, Fab 1181 on coated BSA-hGhrelin; compound 1 ug/ml
Description: as §3, §4, §6
Target sequence in this assay (VL, as listed by the source, chain 2 of 2, one chain of several): as the sequence (VL, as listed by the source, chain 2 of 2, one chain of several) above

Fab 1621 [21] = molecular target: B2; test: competitive ELISA, Fab 1621 on coated BSA-hGhrelin; compound 0.2 ug/ml
Description: as §3, §4, §6
Target sequence in this assay (VH, as listed by the source limits assumed, chain 1 of 2): as the sequence (VH, as listed by the source limits assumed, chain 1 of 2) above
Target sequence in this assay (VL, as listed by the source limits assumed, chain 2 of 2): as the sequence (VL, as listed by the source, chain 2 of 2, one chain of several) above, with M4L, N35S counted along it

T9 sequence (Q92847 whole entry): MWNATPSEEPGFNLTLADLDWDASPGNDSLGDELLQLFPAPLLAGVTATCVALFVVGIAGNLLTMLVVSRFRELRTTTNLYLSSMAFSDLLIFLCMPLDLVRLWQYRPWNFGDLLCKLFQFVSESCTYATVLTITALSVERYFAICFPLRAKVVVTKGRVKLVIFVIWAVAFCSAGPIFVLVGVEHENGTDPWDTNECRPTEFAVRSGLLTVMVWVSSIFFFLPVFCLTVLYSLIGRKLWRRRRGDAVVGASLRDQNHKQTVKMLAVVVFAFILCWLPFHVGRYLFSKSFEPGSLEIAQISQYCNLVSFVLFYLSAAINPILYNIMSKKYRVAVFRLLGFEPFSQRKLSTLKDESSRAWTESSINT

Ave. OD (Fab 1181 [14]) [OD]	Ave. OD (Fab 1181 [15]) [OD]	Ave. OD (Fab 1621 [16]) [OD]	Ave. OD (Fab 1621 [17]) [OD]	Ave. OD (Fab 1181 [18]) [OD]	Ave. OD (Fab 1621 [19]) [OD]	Ave. OD (Fab 1181 [20]) [OD]	Ave. OD (Fab 1621 [21]) [OD]	Binder	further results
								B1	reduction of Fab inhibition of hGhrelin (0.83 nM), FLIPR calcium assay; peptide 100 nM, Fab 0.95 nM [1]: 30%; reduction of Fab inhibition of hGhrelin (0.83 nM), FLIPR calcium assay; peptide 100 nM, Fab 0.95 nM [2]: 80%; reduction of Fab inhibition of hGhrelin (0.83 nM), FLIPR calcium assay; peptide 100 nM, Fab 0.95 nM [3]: 74%; Kd [4]: 0.202 nM; kon [4]: 3.39e+06 M⁻¹ s⁻¹; Kd [5]: 0.434 nM; Kd [6]: 10.4 nM; IC50 (nM), Inhibition of hGhrelin at 0.8 nM, FLIPR calcium assay [7]: 0.8 nM; binding result (Ghrelin (1-8, desacyl)): no binding (tested: 100 nM peptide); binding result (Ghrelin (1-8 acyl)): no binding (tested: 5 µg/ml); binding result (Ghrelin (9-28)): no binding (tested: 100 nM peptide); binding result [8]: no binding (tested: 100 nM peptide); binding result [9]: no binding (tested: 100 nM peptide); binding result [10]: no binding (tested: 100 nM peptide)
								B2	Kd [4]: 0.68 nM; Kd [5]: 1.74 nM; Kd [6]: 5.7 nM; IC50 (nM), Inhibition of hGhrelin at 0.8 nM, FLIPR calcium assay [7]: 1.64 nM; binding result (Ghrelin (1-8, desacyl)): no binding (tested: 100 nM peptide); binding result (Ghrelin (1-8 acyl)): no binding (tested: 5 µg/ml); binding result (Ghrelin (9-28)): no binding (tested: 100 nM peptide); binding result [8]: no binding (tested: 100 nM peptide); binding result [9]: no binding (tested: 100 nM peptide); binding result [10]: no binding (tested: 100 nM peptide)
								B3	binding result [11]: no binding (tested: 100 nM peptide)
								B4	binding result [12]: no binding (tested: 100 nM peptide)
								B5	binding result [13]: binds
1.11	1.23	1.17	1.05	1.13	1.02	1.17	1.04	B6	
0.0445	1.23	1.17	0.0495	0.0784	0.043	0.0497	0.131	B7	
1.18	1.23	1.17	1.33	1.22	1.26	1.19	1.38	B8	
1.21	1.23	1.17	1.32	1.26	1.22	1.22	1.36	B9	
0.178	1.23	1.17	0.932	1.12	0.429	0.883	0.999	B10	binding result [13]: binds
